Like-named read-outs stand apart in the source and are kept apart here.
Assays:
[1] = biological target: T1, SacPox (Sulfolobus acidocaldarius, UniProt Q4J6Z8); experiment: p-nitrophenolate release, […] nm; format: biochemical; conditions: 50 mM HEPES pH 8, 150 mM NaCl, 0.2 mM CoCl2, 25°C, cobalt cofactor; for Km: no SDS
T1 construct: gene pte; recombinant in E. coli BL21(DE3)-pGro7/GroEL with CoCl2

[2] = biological target: T1, SacPox; experiment: phenyl acetate hydrolysis, […] nm; format: biochemical; conditions: 50 mM HEPES pH 8, 150 mM NaCl, 0.2 mM CoCl2, 25°C; cobalt cofactor
[3] = biological target: T1, SacPox; format: biochemical; conditions: 2.5 mM Bicine pH 8.3, 150 mM NaCl, 0.2 mM CoCl2, 0.5% DMSO, 25°C; cobalt cofactor
[4] = system: CCCCC1CCCC(=O)O1; experiment: purified protein; format: biochemical, Sulfolobus acidocaldarius; conditions: 2.5 mM Bicine pH 8.3, 150 mM NaCl, 0.2 mM CoCl2, 0.5% DMSO, 25°C, cobalt cofactor
[5] = system: CCCC1CCC(=O)O1; experiment: purified protein; format: biochemical, Sulfolobus acidocaldarius; conditions: 2.5 mM Bicine pH 8.3, 150 mM NaCl, 0.2 mM CoCl2, 0.5% DMSO, 25°C, cobalt cofactor
[6] = system: CCCCCCCCC1CCC(=O)O1; experiment: purified protein; format: biochemical, Sulfolobus acidocaldarius; conditions: 2.5 mM Bicine pH 8.3, 150 mM NaCl, 0.2 mM CoCl2, 0.5% DMSO, 25°C, cobalt cofactor
[7] = system: CCCCCCCC(=O)CC(=O)N[C@H]1CCOC1=O; experiment: purified protein; format: biochemical, Sulfolobus acidocaldarius; conditions: 2.5 mM Bicine pH 8.3, 150 mM NaCl, 0.2 mM CoCl2, 0.5% DMSO, 25°C, cobalt cofactor
[8] = system: CCCCCCCC(=O)NC1CCOC1=O; experiment: purified protein; format: biochemical, Sulfolobus acidocaldarius; conditions: 2.5 mM Bicine pH 8.3, 150 mM NaCl, 0.2 mM CoCl2, 0.5% DMSO, 25°C, cobalt cofactor
[9] = system: CCCCCC(=O)CC(=O)N[C@H]1CCOC1=O; experiment: purified protein; format: biochemical, Sulfolobus acidocaldarius; conditions: 2.5 mM Bicine pH 8.3, 150 mM NaCl, 0.2 mM CoCl2, 0.5% DMSO, 25°C, cobalt cofactor
[10] = system: CCCCCC1CCC(=O)O1; experiment: purified protein; format: biochemical, Sulfolobus acidocaldarius; conditions: 2.5 mM Bicine pH 8.3, 150 mM NaCl, 0.2 mM CoCl2, 0.5% DMSO, 25°C, cobalt cofactor
[11] = system: CCCCCCCC1CCCC(=O)O1; experiment: purified protein; format: biochemical, Sulfolobus acidocaldarius; conditions: 2.5 mM Bicine pH 8.3, 150 mM NaCl, 0.2 mM CoCl2, 0.5% DMSO, 25°C, cobalt cofactor
[12] = system: CCCCCCC1CCCC(=O)O1; experiment: purified protein; format: biochemical, Sulfolobus acidocaldarius; conditions: 2.5 mM Bicine pH 8.3, 150 mM NaCl, 0.2 mM CoCl2, 0.5% DMSO, 25°C, cobalt cofactor

Question: COP(=O)(OC)Oc1ccc([N+](=O)[O-])cc1 [Methyl Paraoxon] was tested. Which Km [1] did it give?
Answer: The Km was 278 ± 40 µM.

Question: For CCOP(=O)(OCC)Oc1ccc([N+](=O)[O-])cc1 [Paraoxon], which Km [1] is on record?
Answer: Its Km is 434 ± 54 µM.

Question: With CC(=O)Oc1ccc([N+](=O)[O-])cc1 [pNP-acetate] as the compound, how does the “K M (μM)” value [1] read?
Answer: The value was 2 107 ± 313 μM.

Question: For CC(=O)Oc1ccccc1 [Phenyl-acetate], which “K M (μM)” value [2] is on record?
Answer: Its value is 8 181 ± 1750 μM.

Question: With O=C1CCCCCO1 [ϵ caprolactone] as the compound, how does the “K M (μM)” value [3] read?
Answer: The value was 1 031 ± 83 μM.

Question: Which results are given for “SacPox (Sulfolobus acidocaldarius DSM 639)”?
Answer: Km [4]: 348 ± 53 µM; kcat [4]: 4.55 ± 0.21 s⁻¹; kcat/Km [4]: 13100 ± 2100 M⁻¹ s⁻¹; Km [5]: 388 ± 62 µM; kcat [5]: 10.2 ± 0.5 s⁻¹; kcat/Km [5]: 26400 ± 4400 M⁻¹ s⁻¹; Km [6]: 242 ± 60 µM; kcat [6]: 0.53 ± 0.03 s⁻¹; kcat/Km [6]: 2210 ± 570 M⁻¹ s⁻¹; Km [7]: 213 ± 33 µM; kcat [7]: 1.03 ± 0.04 s⁻¹; kcat/Km [7]: 4880 ± 770 M⁻¹ s⁻¹; Km [8]: 178 ± 26 µM; kcat [8]: 0.94 ± 0.02 s⁻¹; kcat/Km [8]: 5280 ± 770 M⁻¹ s⁻¹; Km [9]: 836 ± 178 µM; kcat [9]: 0.89 ± 0.07 s⁻¹; kcat/Km [9]: 1070 ± 250 M⁻¹ s⁻¹; Km [10]: 109 ± 19 µM; kcat [10]: 2.64 ± 0.07 s⁻¹; kcat/Km [10]: 24400 ± 4400 M⁻¹ s⁻¹; Km [11]: 185 ± 27 µM; kcat [11]: 3.34 ± 0.07 s⁻¹; kcat/Km [11]: 18100 ± 2700 M⁻¹ s⁻¹; Km [12]: 168 ± 37 µM; kcat [12]: 1.05 ± 0.05 s⁻¹; kcat/Km [12]: 6220 ± 1400 M⁻¹ s⁻¹

From article PMC4068969, “SacPox from the thermoacidophilic crenarchaeon Sulfolobus acidocaldarius is a proficient lactonase” (BMC Research Notes, 2014)
